According to US20240092930A1 (MABWELL SHANGHAI BIOSCIENCE, published 2024):
Residue numbers refer to the chain shown, from its start.

T1: recombinant human Trop-2-his protein (ACCESSION NO.: NP_002344.2, AA 1-274) (human, UniProt P09758 27-274)
T1 construct: range 27-274; also called recombinant human Trop-2 protein; recombinant human Trop-2 extracellular domain; not shown: his tag
T1 sequence (looked up): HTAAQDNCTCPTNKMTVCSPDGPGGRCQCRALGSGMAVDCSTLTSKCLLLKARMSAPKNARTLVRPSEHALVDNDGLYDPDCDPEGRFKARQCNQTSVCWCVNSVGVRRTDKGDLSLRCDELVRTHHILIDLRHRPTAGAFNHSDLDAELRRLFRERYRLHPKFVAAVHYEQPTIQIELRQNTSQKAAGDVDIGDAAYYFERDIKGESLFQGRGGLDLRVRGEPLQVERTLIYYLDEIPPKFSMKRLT

B1: h4-3-2 (antibody, human IgG1, kappa, V domains shown)
VH: EVQLVQSGPEVKKPGASVKVSCKASGFTFTDYVIGWVRQAPGQGLEWIGEIYLGSGTIYYAEKFKGRVTMTADTSTSTAYMELSSLRSEDTAVYYCARGSIFPFDYWGQGTLVTVSS
VL: DIQLTQSPSSLSASVGDRVTITCSASSSVSYMYWYQQKPGKAPKLLIYDTSTLASGVPSRFSGSGSGTDFTLTISSLQPEDFATYYCQQWSSYPYTFGQGTKLEIKR
B2: h4-3-3 (antibody, human IgG1, kappa, V domains shown)
VH: B1 VH with A61T, E62Q
VL: B1 VL
B3: h4-3-19 (antibody, human IgG1, kappa, V domains shown)
VH: B1 VH with A61T, E62Q
VL: B1 VL with S91N
B4: h4-3-11 (antibody, human IgG1, kappa, V domains shown)
VH: B1 VH with A61T, E62Q
VL: B1 VL with T50A
B5: h4-3-18 (antibody, human IgG1, kappa, V domains shown)
VH: B1 VH
VL: B1 VL with S91N
B6: h4-3-16 (antibody, human IgG1, kappa, V domains shown)
VH: B1 VH with A61T, P103Y
VL: B1 VL with A54Q
B7: h4-3-9 (antibody, human IgG1, kappa, V domains shown)
VH: B1 VH with A61T
VL: B1 VL with T50A
B8: h4-3-6 (antibody, human IgG1, kappa, V domains shown)
VH: B1 VH
VL: B1 VL with S24R
B9: h4-3-17 (antibody, human IgG1, kappa, V domains shown)
VH: B1 VH with A61T
VL: B1 VL with S91N
B10: h4-3-20 (antibody, human IgG1, kappa, V domains shown)
VH: B1 VH with A61T, P103Y
VL: B1 VL with S91N
B11: h4-3-12 (antibody, human IgG1, kappa, V domains shown)
VH: B1 VH with A61T, P103Y
VL: B1 VL with T50A
B12: h4-3-8 (antibody, human IgG1, kappa, V domains shown)
VH: B1 VH with A61T, P103Y
VL: B1 VL with S24R
B13: h4-3-13 (antibody, human IgG1, kappa, V domains shown)
VH: B1 VH with A61T
VL: B1 VL with A54Q
B14: h4-3-10 (antibody, human IgG1, kappa, V domains shown)
VH: B1 VH
VL: B1 VL with T50A
B15: h4-3-4 (antibody, human IgG1, kappa, V domains shown)
VH: B1 VH with A61T, P103Y
VL: B1 VL
B16: h4-3-5 (antibody, human IgG1, kappa, V domains shown)
VH: B1 VH with A61T
VL: B1 VL with S24R
B17: h4-3-15 (antibody, human IgG1, kappa, V domains shown)
VH: B1 VH with A61T, E62Q
VL: B1 VL with A54Q
B18: h4-3-14 (antibody, human IgG1, kappa, V domains shown)
VH: B1 VH
VL: B1 VL with A54Q
B19: h4-3-7 (antibody, human IgG1, kappa, V domains shown)
VH: B1 VH with A61T, E62Q
VL: B1 VL with S24R
B20: h11-4-1 (antibody, human IgG1, kappa, V domains shown)
VH: QVQLVQSGAEVKKPGASVKVSCKASGYTFTSYWINWVRQAPGQGLEWMGNIYPSNSYTNYNQKFKDRVTMTRDTSTSTVYMELSSLRSEDTAVYYCARYRSDGFAYWGQGTLVTVSS
VL: EIVLTQSPATLSLSPGERATLSCRASQNIGTSIHWYQQKPGQAPRLLIYFASESISGIPARFSGSGSGTDFTLTISSLEPEDFAVYYCQQSNSWPFTFGGGTKVEIKR
notes: also called CDR grafted antibody 11-4
B21: h11-4-6 (antibody, human IgG1, kappa, name in Kabat numbering, V domains shown)
VH: B20 VH with A97S
VL: B20 VL with Y49E
B22: h11-4-12 (antibody, human IgG1, kappa, name in Kabat numbering, V domains shown)
VH: B20 VH with Q1E, A97S, R98S, G103A
VL: B20 VL with H34E, Y49E
B23: h11-4-8 (antibody, human IgG1, kappa, name in Kabat numbering, V domains shown)
VH: B20 VH with Q1E, A97S, R98S
VL: B20 VL with Y49E
B24: h11-4-4 (antibody, human IgG1, kappa, V domains shown)
VH: B20 VH with Q1E, A97S, R98S
VL: B20 VL
B25: h11-4-10 (antibody, human IgG1, kappa, name in Kabat numbering, V domains shown)
VH: B20 VH with Q1E, A97S, R98S, D102E
VL: B20 VL with H34E, Y49E
B26: h11-4-2 (antibody, human IgG1, kappa, V domains shown)
VH: B20 VH with A97S
VL: B20 VL
B27: h11-4-7 (antibody, human IgG1, kappa, name in Kabat numbering, V domains shown)
VH: B20 VH with R98S
VL: B20 VL with Y49E
B28: h11-4-9 (antibody, human IgG1, kappa, name in Kabat numbering, V domains shown)
VH: B20 VH with Q1E, A97S, R98S
VL: B20 VL with H34E, Y49E
B29: h11-4-5 (antibody, human IgG1, kappa, name in Kabat numbering, V domains shown)
VH: B20 VH
VL: B20 VL with Y49E
B30: h11-4-13 (antibody, human IgG1, kappa, name in Kabat numbering, V domains shown)
VH: B20 VH with Q1E, A97S, R98S
VL: B20 VL with H34S, Y49E
B31: h11-4-3 (antibody, human IgG1, kappa, V domains shown)
VH: B20 VH with R98S
VL: B20 VL
B32: h11-4-11 (antibody, human IgG1, kappa, name in Kabat numbering, V domains shown)
VH: B20 VH with Q1E, A97S, R98S, D102G
VL: B20 VL with H34E, Y49E
B33: h23-12-45 (antibody, human IgG1, kappa, V domains shown)
VH: QVQLVQSGAEVKKPGASVKVSCKASGYTFTSYWMHWVRQAPGQGLEWMGEITPSDGYTSYNQKFKGRVTITRDTSTSTAYMELSSLRSEDTAVYYCARGHGNYVSFDYWGQGTLVTVSS
VL: DIQMTQSPSSLSASVGDRVTITCRASQDISNYLNWYQQKPGKAPKLLIYYTSRLHSGVPSRFSGSGSGTDFTLTISSLQPEDFATYFCQQGYSLPPYTFGQGTKLEIKR
B34: h23-12-46 (antibody, human IgG1, kappa, V domains shown)
VH: B33 VH with G56N, T58G
VL: B33 VL
B35: h23-12-49 (antibody, human IgG1, kappa, V domains shown)
VH: B33 VH with G56N, H100Q
VL: B33 VL
B36: h23-12-47 (antibody, human IgG1, kappa, V domains shown)
VH: B33 VH with G56N, N61A
VL: B33 VL
B37: h23-12-48 (antibody, human IgG1, kappa, V domains shown)
VH: B33 VH with G56N, H100E
VL: B33 VL

molecular target: T1, recombinant human Trop-2-his protein …; assay: BLI, antibody on AHC sensor, Trop-2-his 60 nM
Procedure: (§1) 5-6 days after cell transfection, culture supernatants were purified through ProA affinity chromatography column to obtain different humanized antibodies. Affinities of the obtained antibodies were determined by an assay including capturing Fc fragments of the antibodies with anti-human IgG Fc capture (AHC) biosensors using Octet QKe system instrument from Fortebio. For the assay, each of the humanized antibodies and control antibody Sacituzumab was diluted to 4 μg/ml in PBS, and was allowed to flow through the surface of an AHC biosensor (Cat.: 18-0015, PALL) for 120 s. Recombinant human Trop-2-his protein (ACCESSION NO.: NP_002344.2, AA 1-274) was used as a mobile phase, and its concentration was 60 nM. The binding time was 100 s and the dissociation time was 300 s. When the assay was finished, data from which the response values of blank control had been deducted were fitted to a 1:1 Langmuir binding model using software, and then kinetic constants for antigen-antibody binding were calculated.
Affinities of the antibodies obtained from the combinations of mutants of murine antibody 23-12, chimeric antibody ch4-3 and control antibody Sacituzumab to recombinant human Trop-2-his protein were determined by ForteBio (Table 8).

| Kd | Binder |
| --- | --- |
| 411 pM | B1 |
| 501 pM | B2 |
| 599 pM | B3 |
| 802 pM | B4 |
| 671 pM | B5 |
| 1530 pM | B6 |
| 317 pM | B7 |
| 397 pM | B8 |
| 542 pM | B9 |
| 892 pM | B10 |
| 1030 pM | B11 |
| 862 pM | B12 |
| 281 pM | B13 |
| 763 pM | B14 |
| 636 pM | B15 |
| 273 pM | B16 |
| 687 pM | B17 |
| 571 pM | B18 |
| 466 pM | B19 |

molecular target: T1, recombinant human Trop-2-his protein …; assay: BLI, antibody on AHC sensor, Trop-2-his 60 nM; remark: another data set of the same source
Procedure: as §1
Affinities of the antibodies obtained from the combinations of mutants of murine antibody 11-4, chimeric antibody ch11-4 and control antibody Sacituzumab to recombinant human Trop-2-his protein were determined by ForteBio (Table 11).

| Kd | Binder |
| --- | --- |
| 2160 pM | B20 |
| 952 pM | B21 |
| 282 pM | B22 |
| 222 pM | B23 |
| 811 pM | B24 |
| 351 pM | B25 |
| 991 pM | B26 |
| 803 pM | B27 |
| 301 pM | B28 |
| 1080 pM | B29 |
| 211 pM | B30 |
| 868 pM | B31 |
| 375 pM | B32 |

molecular target: T1, recombinant human Trop-2-his protein …; assay: BLI, antibody on AHC sensor, Trop-2-his 60 nM; remark: another data set of the same source
Procedure: as §1
Affinities of the antibodies obtained from the combinations of mutants of murine antibody 23-12, chimeric antibody ch23-12 and control antibody Sacituzumab to recombinant human Trop-2-his protein were determined by ForteBijo (Table 5).

| Kd | Binder |
| --- | --- |
| 4090 pM | B33 |
| 312 pM | B34 |
| 2990 pM | B35 |
| 2310 pM | B36 |
| 405 pM | B37 |
